According to article PMC3902040:

Target: Factor H (CFH) (human) (UniProt P08603)
Assay: SPR

UniProt P08603, sequence (P08603 19-1231): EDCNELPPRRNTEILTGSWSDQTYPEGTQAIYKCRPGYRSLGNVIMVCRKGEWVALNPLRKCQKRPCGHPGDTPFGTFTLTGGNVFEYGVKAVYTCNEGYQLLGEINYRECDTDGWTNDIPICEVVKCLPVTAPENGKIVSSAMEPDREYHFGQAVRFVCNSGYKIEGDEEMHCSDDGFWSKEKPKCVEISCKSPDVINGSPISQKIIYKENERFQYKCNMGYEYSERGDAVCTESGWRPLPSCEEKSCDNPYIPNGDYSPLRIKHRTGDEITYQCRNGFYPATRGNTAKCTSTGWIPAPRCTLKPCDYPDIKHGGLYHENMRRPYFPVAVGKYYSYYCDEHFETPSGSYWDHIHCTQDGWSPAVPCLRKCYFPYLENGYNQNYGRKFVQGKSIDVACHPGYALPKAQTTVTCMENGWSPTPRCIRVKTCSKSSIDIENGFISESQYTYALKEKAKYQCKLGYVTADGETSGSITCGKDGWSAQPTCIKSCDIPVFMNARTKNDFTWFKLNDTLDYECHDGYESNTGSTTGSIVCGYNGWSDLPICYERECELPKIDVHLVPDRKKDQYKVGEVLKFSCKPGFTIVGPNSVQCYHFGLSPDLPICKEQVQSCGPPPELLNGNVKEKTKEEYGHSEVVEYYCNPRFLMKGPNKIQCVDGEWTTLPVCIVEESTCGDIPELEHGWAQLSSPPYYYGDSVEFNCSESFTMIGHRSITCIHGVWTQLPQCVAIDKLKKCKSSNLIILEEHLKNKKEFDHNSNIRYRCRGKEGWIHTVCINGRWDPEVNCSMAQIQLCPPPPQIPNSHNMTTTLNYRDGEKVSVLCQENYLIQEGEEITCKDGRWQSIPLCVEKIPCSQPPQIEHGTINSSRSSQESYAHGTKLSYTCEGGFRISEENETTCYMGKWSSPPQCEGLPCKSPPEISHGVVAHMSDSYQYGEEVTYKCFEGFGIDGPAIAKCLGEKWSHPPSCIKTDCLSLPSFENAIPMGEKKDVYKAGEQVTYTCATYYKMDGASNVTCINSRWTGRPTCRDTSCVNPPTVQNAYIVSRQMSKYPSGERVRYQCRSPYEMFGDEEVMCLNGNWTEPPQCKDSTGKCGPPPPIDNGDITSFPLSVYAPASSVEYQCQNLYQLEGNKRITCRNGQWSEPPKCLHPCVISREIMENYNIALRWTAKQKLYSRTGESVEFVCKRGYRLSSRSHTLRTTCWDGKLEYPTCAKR

- reduced binding against 155K C3 (percent): 60%
Substance: 155Q C3 protein (C3 K155Q variant, rs147859257), methylamine-treated C3 (MA) (natural protein)
